Source: patent US20250296984A1, “THERAPEUTIC AND DIAGNOSTIC AGENTS AND USES THEREOF” (priority 2022, published 2025)

B1: 7B1F3: mouse IgG1 kappa antibody against US28 ECD1 Peptide-N; VH SEQ ID NO: 211, VL SEQ ID NO: 213 (antibody, V domains shown)
VH: EVQLQQSGAELAKPGASVKMSCKASGYTFTNYWMHWVKQRPGQGLEWIGYVNPRTGYTEYNQKFKDKATLTADKSSRTAYMQLSSLTSEDSAVYSCARILNGTGFAYWGQGTLVTVSA
VL: DIVLTQSPSSLTVSVGEKFTMSCKSSQSLLYSSNQKNYLAWYQQKPGQSPKLLIYWASTRESGVPDRFTGSGSGTDFTLAISSVKPEDLAIYYCQQYYSFPLTFGAGTKLEIK
modifications: Mature form of VH sequence of 7B1F3, without the leader sequence; Mature form of VL sequence of 7B1F3, without the leader sequence
B2: US28-13-5G6-1D3: monoclonal antibody against ECD3 of HCMV US28; VH SEQ ID NO: 12, VL SEQ ID NO: 18; rAb is the recombinant product (antibody, V domains shown)
VH: EVKLVESGGGLVQPGGSLRLACATSGFTFTDYYMSWVRQPPGKALEWLGFIRSKANGYTTEYSASVKGRFTISRDNSQSILYLQMNTLRSEDSATYYCARDERRTAWLAYWGQGTLVTVSA
VL: DVLMTQTPLSLPVSLGDQASISCRSSQSIVHSNGNTYLDWYLQKPGQSPKLLIYKVSNRFSGVPDRFSGSGSGTDFTLKISRVEAEDLGVYYCFQGSHVPTWTFGGGTKLEIK
modifications: Mature form of VH sequence of 1D3, without the leader sequence; Mature form of VL sequence of 1D3, without the leader sequence
notes: monoclonal antibody against ECD3 of HCMV US28; rAb is the recombinant product

Assays:
[1] = molecular target: T1, human proteins on HuProt Human Proteome Microarray (Homo sapiens, UniProt Q13895); assay: HuProt Human Proteome Microarray, off-target human proteins; type: binding; parameters: key to Z Score: Z = (F635 − mean F635 of all spots) / SD; average of duplicate spots; conditions: Protein: BYSL
T1 construct: purchased CDI Labs (HuProt); host or cells: yeast S. cerevisiae
T1 sequence (Q13895 1-437): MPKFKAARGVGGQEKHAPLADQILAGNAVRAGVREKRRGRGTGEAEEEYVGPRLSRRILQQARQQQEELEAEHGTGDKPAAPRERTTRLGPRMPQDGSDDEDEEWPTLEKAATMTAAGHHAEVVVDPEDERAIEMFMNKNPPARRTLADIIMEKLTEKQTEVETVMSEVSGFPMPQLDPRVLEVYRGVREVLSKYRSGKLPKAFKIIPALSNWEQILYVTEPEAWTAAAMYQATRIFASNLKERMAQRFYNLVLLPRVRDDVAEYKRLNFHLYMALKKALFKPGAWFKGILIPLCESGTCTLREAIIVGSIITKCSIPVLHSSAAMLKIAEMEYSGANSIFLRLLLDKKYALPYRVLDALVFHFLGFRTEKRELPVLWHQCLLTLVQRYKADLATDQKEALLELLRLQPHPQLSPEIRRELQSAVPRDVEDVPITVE
Text: (§1) The HuProt™ Human Proteome Microarray provides the largest number of unique, full-length, individually purified human proteins on a single microscope slide. It provides >21,000 unique human proteins, isoform variants, and protein fragments—covering 16,794 unique genes. This includes 15,889 of the 19,613 canonical human proteins described in the Human Protein Atlas, with broad coverage across protein subclasses. This allows thousands of interactions to be profiled in a high-throughput manner. The full-length recombinant proteins are expressed in the yeast S. cerevisiae, purified, and printed on glass slides in duplicate along with a set of control proteins (GST, BSA, histones, IgG, etc.). The full list of the different proteins included in the HuProt™ Human Proteome Microarray as used in this Example is provided as “List B” in the Research Disclosures publication (ISSN 0374-4353, Questel Ireland Ltd) with database numbers 707018, 707019 and 707020, each entitled “Large scale protein arrange target protein identities” and each digitally published on 27 Jan. 2023, the contents of each of which are incorporated herein by reference in their entirety, fo the purposes of the disclosure of the proteins defined by “List B”. “List B” begins in Research Disclosures publication 707018, is continued in Research Disclosures publication 707019, and concludes Research Disclosures publications 707020, and so the three publications are to be read consecutively as a single disclosure of the “List B” proteins. The HuProt™ microarray is not restricted to a particular type of surface coating, although the default is glass coated with ultrathin nitrocellulose film for the non-covalent, yet irreversible, capture of active proteins to the surface.
(§2) Samples of humanised 7B1F3 and mouse 7B1F3 antibodies were analysed for binding specificities on HuProt™ human proteome arrays. A peptide with the sequence TDVLNQSKPVTL (“Peptide 3”) was added to the arrays at 0.1 mg/ml as a control.
(§3) After blocking, the arrays were probed with the antibody samples (0.1 μg/ml) at room temperature for 1 hour. Then the arrays were washed with TBST for 10 min×3 and probed with Alexa647-anti-human IgG Fc or Alexa647-anti-mouse IgG secondary antibodies under conditions optimized by CDI Labs for signal detection.
(§4) • Non-specific hits that directly bind to the secondary antibodies were eliminated from the analysis of the samples. • CDI software was used to quantify the specificity of each individual sample to specific proteins on the array based on Z Scores. • Z score is the average Z score of the duplicate spots of a given protein (each protein is printed in duplicate on a HuProt™ array). The Z score of each spot on a given array is calculated according to the algorithm below:
(§5) Z=[F635−F635(avg)]/F635(std) • F635(avg) and F635(std) are the average and standard deviation of the F635 values of all spots on the array, respectively. • S score is the difference of the Z Scores of a given protein and the one ranked next to it. If the S score of the top hit is >3, the antibody is considered to be highly specific for the top hit. • F635 is the average foreground signal intensity of 2 replicate spots of a given protein in the detection channel (635 nm). • B635 is the average background signal intensity of 2 replicate spots of a given protein in the detection channel (635 nm).

[2] = molecular target: T2, human proteins on HuProt Human Proteome Microarray (Homo sapiens, UniProt Q14847); assay: as above; type: binding; parameters: key to Z Score: Z = (F635 − mean F635 of all spots) / SD; average of duplicate spots; conditions: Protein: LASP1
T2 construct: purchased CDI Labs (HuProt); host or cells: yeast S. cerevisiae
T2 sequence (Q14847 1-261): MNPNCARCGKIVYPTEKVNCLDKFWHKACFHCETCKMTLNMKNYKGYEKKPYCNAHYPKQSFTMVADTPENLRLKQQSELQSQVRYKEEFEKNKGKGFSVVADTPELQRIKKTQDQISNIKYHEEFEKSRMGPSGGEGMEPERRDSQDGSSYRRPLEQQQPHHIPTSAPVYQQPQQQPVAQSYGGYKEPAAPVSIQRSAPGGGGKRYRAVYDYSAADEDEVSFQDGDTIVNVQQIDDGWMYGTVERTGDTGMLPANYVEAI
Text: as §1, §2, §3, §4, §5

Peptide 3 ([…]) = Peptide 3 ([…]) (Human cytomegalovirus, UniProt P69332); assay: HuProt Human Proteome Microarray, control peptide; type: binding, HCMV
Text: as §1, §2, §3, §4, §5

[3] = molecular target: T3, Peptide-1 […] (SEQ ID NO: 6, 4N variant of ECD3 of US28) (Human cytomegalovirus, UniProt P69332, D170N); type: binding, human cytomegalovirus (HCMV); conditions: both ECD3 variants compared
T3 construct: made in house; host or cells: chemical synthesis
Text: The binding specificity of a binding molecule of the first aspect of the present invention having anti-ECD3 binding specificity in addition to the anti-SEQ ID NO: 177 specificity (and/or a second binding molecule having anti-ECD3 binding specificity with which a binding molecule of the first aspect of the present invention may be combined in a formulation) to an epitope within ECD3 of a US28 protein may, for example, be assessed in an ELISA, such as a methodology as described in the examples of this application, or by a variant of said methodology, such as by coating peptides derived from ECD3 (such as Bio-Peptide 1 and/or Bio-Peptide-2) on a first set of wells in a microtiter plate and coating a negative control (such as BSA) in a second set of wells in a microtiter plate. The first set of wells may optionally be further subdivided into a first subgroup of the first set of wells that comprises the sequence of a 4N-variant from ECD3 of US28, and a second subgroup of the first set of wells that comprises the sequence of a 4D-variant from ECD3 of US28, to permit the determination of the relative binding specificity to each variant. […]

[4] = Table 9, top hit Peptide 3, antibody 0.1 μg/ml

| Molecule | F635 [1] | Z Score [1] | F635 [2] | Z Score [2] | S Score (Peptide 3 ([…]); Protein: Peptide 3) | Z Score (Peptide 3 ([…]); Protein: Peptide 3) | F635 (Peptide 3 ([…]); Protein: Peptide 3, antibody 0.1 μg/ml) | Peptide 3 Signal (Peptide 3 ([…]); Table 9, antibody 0.1 μg/ml) | Top Hit (Peptide 3 ([…]); Table 9, antibody 0.1 μg/ml) | S Score (Peptide 3 ([…]); [4]) | Z Score (Peptide 3 ([…]); [4]) | Signal (Peptide 3 ([…]); Table 9, top hit, 65535 is the saturation signal intensity) | qualitative ELISA binding to Bio-Peptide-1 (4N) and Bio-Peptide-2 (4D) [3] |
| --- | --- | --- | --- | --- | --- | --- | --- | --- | --- | --- | --- | --- | --- |
| B1 | 2210 | 6.3 | 3681 | 10.575 | 116.095 | 145.092 | 49972 | 49972 | Peptide 3 | 116.095 | 145.092 | 49972 | – |
| B2 | – | – | – | – | – | – | – | – | – | – | – | – | equal qualitative binding |
